Assay results reported in the supplement of paper PMC10567573.

B1: PTPLAD1 (parent)
chain: YINFRHLYKQRRRRYGQKKKKIH
B2: SCNN1D (parent)
chain: RRPSPVLRHLELLDEFARENIDSL

Variants of: B1
Assay: protein stability index of a GFP-peptide fusion (GPS, HEK-293T) (PSI 1-6); higher = more stable
Conditions: c terminus: native
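Further: lentivirally expressed fusions sorted by FACS into six bins by GFP to DsRed ratio, PSI derived from sequencing read proportions per bin multiplied by bin number.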

Variant | protein stability index
R14H | 1.96
R14I | 1.6
R14E | 1.78
R14K | 2.22
R14A | 2.57
R14G | 2.47
R14F | 2.16
N3R | 4.4
N3W | 1.37
N3T | 2.31
N3H | 2.52
N3K | 1.97
N3Y | 1.71
N3P | 2.09
N3E | 1.61
N3C | 1.57
N3L | 2.72
N3V | 1.61
N3D | 2.39
N3S | 2.68
N3A | 1.9
N3I | 1.58
N3Q | 1.29
N3F | 2.51
H6A | 1.81

Variant | protein stability index
H6K | 2.44
H6T | 2.02
H6G | 1.75
H6S | 1.84
H6P | 1.7
H6L | 2.3
H6M | 1.75
H6W | 1.75
H6C | 2.14
H6Y | 1.88
H6E | 1.73
H6F | 1.54
H6V | 2.06
R5S | 1.17
R5W | 1.55
R5C | 1.45
R5P | 2.49
R5Y | 2.37
R5D | 2.02
R5G | 1.38
R5I | 1.53
R5T | 2.38
R5M | 1.59
R5F | 2.14
R5A | 2.93

Variant | protein stability index
R5N | 1.57
R5Q | 2.3
R5K | 2.51
R5L | 1.79
R5E | 3.34
R5H | 1.8
I2C | 2.2
I2N | 3.6
I2M | 2
I2Y | 2.1
I2Q | 3.45
I2R | 2.05
I2K | 2.27
I2G | 2.19
I2P | 2.9
I2L | 3.44
I2D | 3.45
I2A | 2.7
I2F | 3.06
I2V | 1.97
I2H | 1.29
I2S | 2.53
R12A | 1.44
R12D | 2.24
R12Q | 2.26

Variant | protein stability index
R12M | 2.44
R12L | 1.25
R12C | 1.55
R12W | 2.15
R12V | 3.11
R12N | 2.05
R12P | 1.96
R12F | 1.62
R12E | 1.58
R12K | 1.91
R12I | 2.44
R12H | 1.93
R12Y | 2.01
R12S | 2.18
R12T | 3.06
R12G | 2.92
R11N | 2.91
R11Q | 2.37
R11C | 1.58
R11D | 1.39
R11P | 2.84
R11A | 1.72
R11S | 2.3
R11Y | 2.61
R11M | 1.32

Variant | protein stability index
R11F | 1.73
R11G | 2.54
R11T | 2.02
R11L | 1.61
R11H | 2.15
R11K | 1.65
R13T | 1.75
R13F | 2.49
R13G | 1.41
R13E | 2.09
R13D | 1.37
R13A | 1.7
R13S | 1.41
R13N | 1.25
R13H | 2.4
R13Q | 1.91
R13V | 2.13
R13Y | 2.28
R13I | 1.9
R13L | 2.3
R13P | 3.64
R13K | 1.45
F4M | 1.74
F4P | 1.64
F4H | 3.71

Variant | protein stability index
F4K | 3.29
F4Q | 2.77
F4N | 2.29
F4T | 2.01
F4Y | 1.99
F4I | 2.43
F4D | 3.02
F4G | 1.9
F4C | 2.03
F4W | 1.1
F4E | 3.23
F4L | 2.87
F4S | 3.2
F4R | 2.96
Y8S | 1.95
Y8G | 2.03
Y8W | 2.9
Y8D | 3.25
Y8E | 2.18
Y8K | 2.5
Y8N | 2.72
Y8A | 2.52
Y8I | 1.56
Y8R | 2.2
Y8L | 1.76

Variant | protein stability index
Y8T | 1.76
Y8P | 2.81
Y8H | 2.31
Y8C | 2.01
K9R | 3.03
K9G | 1.95
K9E | 2.03
K9L | 1.55
K9T | 2.12
K9S | 2.6
K9P | 2.27
K9Q | 1.92
K9H | 2.17
K9W | 2.45
K9V | 1.91
K9D | 3.3
K9N | 2.8
K9C | 1.83
K9A | 3.21
K9Y | 2.6
K9I | 2.26
Q10Y | 2.06
Q10S | 1.7
Q10E | 1.96
Q10H | 2.27

Variant | protein stability index
Q10A | 2.59
Q10W | 1.8
Q10F | 2.15
Q10K | 2
Q10C | 2.22
Q10G | 1.92
Q10D | 1.88
Q10V | 1.47
Q10M | 1.96
Q10T | 2.29
Q10P | 1.66
Q10I | 1.3
Q10R | 2.26
Q10L | 2.14
Y1K | 1.94
Y1G | 2.01
Y1R | 1.35
Y1P | 1.93
Y1A | 2.93
Y1S | 3.15
Y1E | 2.5
Y1L | 1.79
Y1D | 3.48
Y1N | 2.97
Y1V | 2.1

Variant | protein stability index
Y1Q | 2.24
Y1T | 2.25
Y1H | 2.9
Y1W | 2.96
Y1I | 1.17
Y1C | 1.59
L7S | 2.04
L7D | 3.07
L7Y | 2.29
L7M | 2.31
L7R | 2.77
L7V | 2.93
L7N | 2.72
L7F | 1.41
L7E | 2.79
L7Q | 2.24
L7P | 2.92
L7A | 2.01
L7G | 2.68
L7T | 2.26
L7I | 1.94
L7H | 2.31

Variants of: B2
Assay: as above
Conditions: c terminus: a fixed tail appended

Variant | protein stability index
L24K | 3.29
L24W | 2.06
L24V | 2.67
L24Q | 3.23
L24S | 3.04
L24I | 2.46
L24T | 3.3
L24Y | 2.55
L24G | 3.06
L24E | 3.25
L24D | 3.15
L24A | 3.52
L24H | 2.88
L24F | 2.07
L24R | 3.17
L24C | 2.73
L24P | 3.19
L24N | 3.29
L24M | 2.4
N20M | 1.77
N20A | 2.35
N20Y | 2.07
N20D | 3.65

Variant | protein stability index
N20K | 3.34
N20H | 1.85
N20G | 2.88
N20R | 2.72
N20V | 2.54
N20F | 2.52
N20L | 2.17
N20T | 1.93
N20S | 2.36
N20P | 3.04
N20C | 2.33
N20W | 2.85
N20I | 1.74
N20E | 1.88
N20Q | 2.08
D22H | 2.87
D22A | 2.97
D22C | 1.7
D22G | 2.41
D22R | 2.76
D22Q | 2.47
D22Y | 1.8
D22V | 2.03

Variant | protein stability index
D22L | 1.55
D22E | 2.99
D22T | 2.18
D22P | 2.22
D22W | 1.68
D22S | 2.42
D22I | 2.15
D22N | 3.12
D22F | 1.57
D22M | 1.47
D22K | 2.97
S23M | 2.56
S23R | 3.44
S23L | 2.72
S23I | 2.26
S23V | 2.45
S23K | 3.56
S23W | 1.32
S23E | 2.92
S23C | 2.5
S23A | 2.07
S23N | 2.94
S23H | 2.7

Variant | protein stability index
S23Q | 2.27
S23P | 2.99
S23G | 3.33
S23T | 2.74
S23F | 1.74
S23D | 2.57
S23Y | 2.46
E19G | 3.88
E19D | 2.73
E19Y | 2.39
E19M | 2.88
E19N | 2.89
E19P | 2.72
E19I | 2.5
E19V | 2.88
E19H | 2.5
E19R | 2.61
E19F | 2.46
E19L | 2.52
E19W | 1.82
E19T | 3.16
E19S | 2.74
E19K | 2.74

Variant | protein stability index
E19Q | 2.68
I21M | 2.89
I21K | 3.36
I21L | 2.95
I21H | 3.61
I21G | 3.38
I21C | 2.43
I21F | 2.74
I21A | 3.04
I21E | 3.27
I21Q | 3.59
I21W | 1.87
I21Y | 2.34
I21P | 4.41
I21S | 3.85
I21R | 2.96
I21V | 2.87
I21D | 3.36
I21N | 2.81
I21T | 2.98
